In paper PMC2749821 (2009):

T1: BMPR1B (Mus musculus (Mouse), UniProt P36898)
T1 chain: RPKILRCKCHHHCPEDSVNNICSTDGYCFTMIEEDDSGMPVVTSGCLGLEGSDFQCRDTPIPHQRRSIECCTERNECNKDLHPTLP

T2: ACVR2B (Mus musculus (Mouse), UniProt P27040)
T2 chain: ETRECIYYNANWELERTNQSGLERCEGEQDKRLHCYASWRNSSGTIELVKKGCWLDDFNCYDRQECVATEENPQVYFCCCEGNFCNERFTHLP

B1: BMP7 (protein)
chain 1: DQRQACKKHELYVSFRDLGWQDWIIAPEGYAAYYCEGECAFPLNSYMNATNHAIVQTLVHFINPETVPKPCCAPTQLNAISVLYFDDSSNVILKKYRNMVVRACGCH
chain 2: B1 chain 1
B2: ActivinA (protein)
chain 1: GLECDGKVNICCKKQFFVSFKDIGWNDWIIAPSGYHANYCEGECPSHIAGTSGSSLSFHSTVINHYRMRGHSPFANLKSCCVPTKLRPMSMLYYDDGQNIIKKDIQNMIVEECGCS
chain 2: B2 chain 1

How the values were obtained:
BMPR1B = molecular target: T1, BMPR1B; assay: SPR 1:1 (ligand immobilised, monomeric ECD analyte)
ACVR2B = molecular target: T2, ACVR2B; assay: as above

Kd (BMPR1B) [nM] | Kd (ACVR2B) [nM] | Binder
750 | 2500 | B1
> 64000 | 88 | B2
